# What was measured:
# HeLa Kyoto [1] = assay: solubility in G1/S (NP-40 vs SDS abundance) (log2 ratio); higher = more soluble; conditions: cell cycle stage: G1/S
# HeLa Kyoto [2] = assay: melting temperature (median over replicates), in situ; higher = more thermally stable
# HeLa Kyoto [3] = assay: solubility change mitosis vs G1/S (difference of NP-40 vs SDS log2 ratios) (log2 ratio difference); higher = more soluble in mitosis
# HeLa Kyoto [4] = assay: thermal stability score vs G1/S (z-score of summed log2 fold changes over temperatures); higher = more thermally stable than in G1/S
# [5] = cell cycle stage: early G1 (4.5 h after nocodazole release)
# 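Wherever melting temperature (median over replicates), in situ is given: HeLa Kyoto cells synchronized by double thymidine or nocodazole block, proteins quantified by TMT10plex mass spectrometry, three independent biological replicates.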
# 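Wherever solubility change mitosis vs G1/S (difference of NP-40 vs SDS log2 ratios) is given: synchronized HeLa Kyoto cells (double thymidine block for G1/S, nocodazole release for mitosis), protein amounts in NP-40 versus SDS lysates quantified by mass spectrometry, three biological replicates.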
# 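Wherever solubility in G1/S (NP-40 vs SDS abundance) is given: HeLa Kyoto cells arrested at G1/S by double thymidine block, proteins quantified by TMT10plex mass spectrometry in mild NP-40 versus SDS extracts, three biological replicates.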
# 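Wherever thermal stability score vs G1/S (z-score of summed log2 fold changes over temperatures) is given: synchronized HeLa Kyoto cells, proteins quantified by TMT10plex mass spectrometry, three biological replicates, mitosis taken 0.5 h after nocodazole release, G1/S directly after double thymidine block.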
Sequence,solubility in G1/S (log2) (HeLa Kyoto [1]),melting temperature (HeLa Kyoto [2]; cell cycle stage: G1/S) [°C],melting temperature (HeLa Kyoto [2]; cell cycle stage: mitosis) [°C],solubility change mitosis (log2) (HeLa Kyoto [3]),thermal stability score (HeLa Kyoto [4]; [5]),thermal stability score (HeLa Kyoto [4]; cell cycle stage: mitosis)
MSRSVLQPSQQKLAEKLTILNDRGVGMLTRLYNIKKACGDPKAKPSYLIDKNLESAVKFIVRKFPAVETRNNNQQLAQLQKEKSEILKNLALYYFTFVDVMEFKDHVCELLNTIDVCQVFFDITVNFDLTKNYLDLIITYTTLMILLSRIEERKAIIGLYNYAHEMTHGASDREYPRLGQMIVDYENPLKKMMEEFVPHSKSLSDALISLQMVYPRRNLSADQWRNAQLLSLISAPSTMLNPAQSDTMPCEYLSLDAMEKWIIFGFILCHGILNTDATALNLWKLALQSSSCLSLFRDEVFHIHKAAEDLFVNIRGYNKRINDIRECKEAAVSHAGSMHRERRKFLRSALKELATVLSDQPGLLGPKALFVFMALSFARDEIIWLLRHADNMPKKSADDFIDKHIAELIFYMEELRAHVRKYGPVMQRYYVQYLSGFDAVVLNELVQNLSVCPEDESIIMSSFVNTMTSLSVKQVEDGEVFDFRGMRLDWFRLQAYTSVSKASLGLADHRELGKMMNTIIFHTKMVDSLVEMLVETSDLSIFCFYSRAFEKMFQQCLELPSQSRYSIAFPLLCTHFMSCTHELCPEERHHIGDRSLSLCNMFLDEMAKQARNLITDICTEQCTLSDQLLPKHCAKTISQAVNKKSKKQTGKKGEPEREKPGVESMRKNRLVVTNLDKLHTALSELCFSINYVPNMVVWEHTFTPREYLTSHLEIRFTKSIVGMTMYNQATQEIAKPSELLTSVRAYMTVLQSIENYVQIDITRVFNNVLLQQTQHLDSHGEPTITSLYTNWYLETLLRQVSNGHIAYFPAMKAFVNLPTENELTFNAEEYSDISEMRSLSELLGPYGMKFLSESLMWHISSQVAELKKLVVENVDVLTQMRTSFDKPDQMAALFKRLSSVDSVLKRMTIIGVILSFRSLAQEALRDVLSYHIPFLVSSIEDFKDHIPRETDMKVAMNVYELSSAAGLPCEIDPALVVALSSQKSENISPEEEYKIACLLMVFVAVSLPTLASNVMSQYSPAIEGHCNNIHCLAKAINQIAAALFTIHKGSIEDRLKEFLALASSSLLKIGQETDKTTTRNRESVYLLLDMIVQESPFLTMDLLESCFPYVLLRNAYHAVYKQSVTSSA [NCKAP1],-0.214,51.5,51.1,-0.159,-0.278,-0.186
MSRYGRYGGETKVYVGNLGTGAGKGELERAFSYYGPLRTVWIARNPPGFAFVEFEDPRDAEDAVRGLDGKVICGSRVRVELSTGMPRRSRFDRPPARRPFDPNDRCYECGEKGHYAYDCHRYSRRRRSRSRSRSHSRSRGRRYSRSRSRSRGRRSRSASPRRSRSISLRRSRSASLRRSRSGSIKGSRYFQSPSRSRSRSRSISRPRSSRSKSRSPSPKRSRSPSGSPRRSASPERMD [SRSF7],-1.02,50.4,50.5,0.665,-4.9,-9.15
MSSAPRRPAKGADSFCTPEPESLGPGTPGFPEQEEDELHRTLGVERFEEILQEAGSRGGEEPGRSYGEEDFEYHRQSSHHIHHPLSTHLPPDARRRKTPQGPGRKPRRRPGASPTGETPTIEEGEEDEDEASEAEGARALTQPSPVSTPSSVQFFLQEDDSADRKAERTSPSSPAPLPHQEATPRASKGAQAGTQVEEAEAEAVAVASGTAGGDDGGASGRPLPKAQPGHRSYNLQERRRIGSMTGAEQALLPRVPTDEIEAQTLATADLDLMKSHRFEDVPGVRRHLVRKNAKGSTQSGREGREPGPTPRARPRAPHKPHEVFVELNELLLDKNQEPQWRETARWIKFEEDVEEETERWGKPHVASLSFRSLLELRRTLAHGAVLLDLDQQTLPGVAHQVVEQMVISDQIKAEDRANVLRALLLKHSHPSDEKDFSFPRNISAGSLGSLLGHHHGQGAESDPHVTEPLMGGVPETRLEVERERELPPPAPPAGITRSKSKHELKLLEKIPENAEATVVLVGCVEFLSRPTMAFVRLREAVELDAVLEVPVPVRFLFLLLGPSSANMDYHEIGRSISTLMSDKQFHEAAYLADEREDLLTAINAFLDCSVVLPPSEVQGEELLRSVAHFQRQMLKKREEQGRLLPTGAGLEPKSAQDKALLQMVEAAGAAEDDPLRRTGRPFGGLIRDVRRRYPHYLSDFRDALDPQCLAAVIFIYFAALSPAITFGGLLGEKTQDLIGVSELIMSTALQGVVFCLLGAQPLLVIGFSGPLLVFEEAFFSFCSSNHLEYLVGRVWIGFWLVFLALLMVALEGSFLVRFVSRFTQEIFAFLISLIFIYETFYKLVKIFQEHPLHGCSASNSSEVDGGENMTWAGARPTLGPGNRSLAGQSGQGKPRGQPNTALLSLVLMAGTFFIAFFLRKFKNSRFFPGRIRRVIGDFGVPIAILIMVLVDYSIEDTYTQKLSVPSGFSVTAPEKRGWVINPLGEKSPFPVWMMVASLLPAILVFILIFMETQITTLIISKKERMLQKGSGFHLDLLLIVAMGGICALFGLPWLAAATVRSVTHANALTVMSKAVAPGDKPKIQEVKEQRVTGLLVALLVGLSIVIGDLLRQIPLAVLFGIFLYMGVTSLNGIQFYERLHLLLMPPKHHPDVTYVKKVRTLRMHLFTALQLLCLALLWAVMSTAASLAFPFILILTVPLRMVVLTRIFTDREMKCLDANEAEPVFDEREGVDEYNEMPMPV [SLC4A2],0.054,53.9,54.1,0.0677,0.464,-0.912
MSSASGLRRGHPAGGEENMTETDAFYKREMFDPAEKYKMDHRRRGIALIFNHERFFWHLTLPERRGTCADRDNLTRRFSDLGFEVKCFNDLKAEELLLKIHEVSTVSHADADCFVCVFLSHGEGNHIYAYDAKIEIQTLTGLFKGDKCHSLVGKPKIFIIQACRGNQHDVPVIPLDVVDNQTEKLDTNITEVDAASVYTLPAGADFLMCYSVAEGYYSHRETVNGSWYIQDLCEMLGKYGSSLEFTELLTLVNRKVSQRRVDFCKDPSAIGKKQVPCFASMLTKKLHFFPKSN [CASP6],-0.374,54.4,56.6,-0.176,-0.607,-1.03
MSSASVTAFEKEHLWMYLQALGFEPGPATIACGKIVSHTHLGVNMFDKLNRDAFHIISYFLFQVLDQSLTKEVFKFCWPPFDQKSDTEFRKHCCEWIKRISGECGSSFPQVVGSLFLSPGGPKFIHLMYHFARFVAMKYIKSNSKNSSHHFVETFNIKPQDLHKCIARCHFARSRFLQILQRQDCVTQKYQENAQLSVKQVRNLRSECIGLENQIKKMEPYDDHSNMEEKIQKVRSLWASVNETLMFLEKEREVVSSVLSLVNQYALDGTNVAINIPRLLLDKIEKQMFQLHIGNVYEAGKLNLLTVIQLLNEVLKVMKYERCQADQARLTVDLHYLEKETKFQKERLSDLKHMRYRIKDDLTTIRHSVVEKQGEWHKKWKEFLGLSPFSLIKGWTPSVDLLPPMSPLSFDPASEEVYAKSILCQYPASLPDAHKQHNQENGCRGDSDTLGALHDLANSPASFLSQSVSSSDRNSVTVLEKDTKMGTPKEKNEAISKKIPEFEVENSPLSDVAKNTESSAFGGSLPAKKSDPFQKEQDHLVEEVARAVLSDSPQLSEGKEIKLEELIDSLGSNPFLTRNQIPRTPENLITEIRSSWRKAIEMEENRTKEPIQMDAEHREVLPESLPVLHNQREFSMADFLLETTVSDFGQSHLTEEKVISDCECVPQKHVLTSHIDEPPTQNQSDLLNKKVICKQDLECLAFTKLSETSRMETFSPAVGNRIDVMGGSEEEFMKILDHLEVSCNKPSTNKTMLWNSFQISSGISSKSFKDNDFGILHETLPEEVGHLSFNSSSSSEANFKLEPNSPMHGGTLLEDVVGGRQTTPESDFNLQALRSRYEALKKSLSKKREESYLSNSQTPERHKPELSPTPQNVQTDDTLNFLDTCDLHTEHIKPSLRTSIGERKRSLSPLIKFSPVEQRLRTTIACSLGELPNLKEEDILNKSLDAKEPPSDLTR [HAUS6],-0.0247,48.3,49.1,-0.0199,0.745,1.14
MSSCSRVALVTGANRGIGLAIARELCRQFSGDVVLTARDVARGQAAVQQLQAEGLSPRFHQLDIDDLQSIRALRDFLRKEYGGLNVLVNNAAVAFKSDDPMPFDIKAEMTLKTNFFATRNMCNELLPIMKPHGRVVNISSLQCLRAFENCSEDLQERFHSETLTEGDLVDLMKKFVEDTKNEVHEREGWPNSPYGVSKLGVTVLSRILARRLDEKRKADRILVNACCPGPVKTDMDGKDSIRTVEEGAETPVYLALLPPDATEPQGQLVHDKVVQNW [CBR3],0.562,51.4,52.4,-0.0459,-0.991,0.085
MSSDFEGYEQDFAVLTAEITSKIARVPRLPPDEKKQMVANVEKQLEEAKELLEQMDLEVREIPPQSRGMYSNRMRSYKQEMGKLETDFKRSRIAYSDEVRNELLGDDGNSSENQRAHLLDNTERLERSSRRLEAGYQIAVETEQIGQEMLENLSHDREKIQRARERLRETDANLGKSSRILTGMLRRIIQNRILLVILGIIVVITILMAITFSVRRH [VTI1A],0.0215,55.6,55.8,-0.165,-4.18,-3.25

# From the supplement of paper PMC5998384
